“And” between values parts separate entries of the source, which are not always exact repeats. Equal values may be shown once.
Biological target: PSD95, endogenous, from mouse brain lysate (mouse (endogenous in mouse brain)) (UniProt Q62108)
Test: co-IP

Chain of Phosphorylated Sept7 (pT426), endogenous, from mouse brain lysate (O55131 2-436): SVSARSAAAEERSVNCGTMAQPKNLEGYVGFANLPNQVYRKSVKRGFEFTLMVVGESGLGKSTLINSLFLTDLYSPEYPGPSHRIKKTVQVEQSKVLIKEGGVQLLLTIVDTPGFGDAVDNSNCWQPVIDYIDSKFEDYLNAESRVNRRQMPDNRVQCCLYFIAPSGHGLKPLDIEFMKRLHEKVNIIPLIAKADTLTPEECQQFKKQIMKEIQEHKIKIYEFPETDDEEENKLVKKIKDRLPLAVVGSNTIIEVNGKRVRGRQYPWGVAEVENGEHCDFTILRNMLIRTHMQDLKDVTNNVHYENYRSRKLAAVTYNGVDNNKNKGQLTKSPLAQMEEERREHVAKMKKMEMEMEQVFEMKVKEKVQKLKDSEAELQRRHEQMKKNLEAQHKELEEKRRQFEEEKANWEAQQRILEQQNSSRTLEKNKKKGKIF
Chain of PSD95, endogenous, from mouse brain lysate (mouse (endogenous in mouse brain)) (Q62108 whole entry): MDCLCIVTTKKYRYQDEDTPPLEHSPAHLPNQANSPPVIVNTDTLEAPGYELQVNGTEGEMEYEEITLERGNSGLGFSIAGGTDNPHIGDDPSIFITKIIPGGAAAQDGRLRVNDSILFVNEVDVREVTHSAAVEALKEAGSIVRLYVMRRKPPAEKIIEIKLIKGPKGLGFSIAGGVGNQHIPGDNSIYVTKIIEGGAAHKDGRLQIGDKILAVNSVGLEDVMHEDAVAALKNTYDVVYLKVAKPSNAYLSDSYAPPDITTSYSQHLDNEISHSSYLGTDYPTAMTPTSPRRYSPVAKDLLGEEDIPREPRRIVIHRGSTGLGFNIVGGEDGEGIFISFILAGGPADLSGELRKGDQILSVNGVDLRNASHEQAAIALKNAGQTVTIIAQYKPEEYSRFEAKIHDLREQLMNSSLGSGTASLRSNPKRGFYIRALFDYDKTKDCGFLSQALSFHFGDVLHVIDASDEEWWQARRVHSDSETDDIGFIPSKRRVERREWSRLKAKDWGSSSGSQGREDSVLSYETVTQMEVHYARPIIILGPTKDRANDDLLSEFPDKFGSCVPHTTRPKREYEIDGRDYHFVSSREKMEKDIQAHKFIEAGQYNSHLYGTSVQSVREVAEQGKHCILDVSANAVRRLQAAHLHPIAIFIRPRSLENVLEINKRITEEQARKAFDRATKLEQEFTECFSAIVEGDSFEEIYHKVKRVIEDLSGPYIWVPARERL

percent of endogenous Sept7 pulled down with PSD95: 10% and 15%
Substance: Phosphorylated Sept7 (pT426), endogenous, from mouse brain lysate (from UniProt O55131 1-436) (natural protein)
